Assay results from the supplement of paper PMC7125110.
± gives the standard error. For some of these results: Fewer inactive variants are shown than the library holds.

B1: glmS ribozyme (parent)
chain: AUAAAAGCGCCAGAACUACAGAAAUGUAGUUGACGAGGAGGAGGUUUAUCGAAUUUUCGGCGGAUGCCUCCAAA

Tests used:
Details in all cases: with glucosamine-6-phosphate
glucosamine-6-phosphate [1] = variants of: B1; test: self-cleavage kobs at 40 uM GlcN6P; higher = faster cleavage; RNA array
Outline: (§1)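 Tiles bearing barcoded ribozyme variants, transcribed in situ by E. coli RNA polymerase on sequenced MiSeq chips, were imaged over ~14 h at 37 °C using a hybridised Cy3 probe. Glucosamine-6-phosphate was supplied at 40 μM to 10 mM in HEPES/KCl/Mg(OAc)2 buffer. kobs came from one- or two-exponential decay fits to normalised per-tile medians, and weighted Michaelis–Menten fits then provided kcat and KM.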

glucosamine-6-phosphate [2] = variants of: B1; test: self-cleavage kobs at 640 uM GlcN6P; higher = faster cleavage; RNA array
Outline: as §1

glucosamine-6-phosphate [3] = variants of: B1; test: self-cleavage kobs at 160 uM GlcN6P; higher = faster cleavage; RNA array
Outline: as §1

glucosamine-6-phosphate [4] = variants of: B1; test: self-cleavage kobs at 2500 uM GlcN6P; higher = faster cleavage; RNA array
Outline: as §1

glucosamine-6-phosphate [5] = variants of: B1; test: self-cleavage kobs at 10000 uM GlcN6P; higher = faster cleavage; RNA array
Outline: as §1

glucosamine-6-phosphate [6] = variants of: B1; test: KM; higher = weaker cofactor use; RNA array
Outline: as §1

| Variant | self-cleavage kobs at 40 uM GlcN6P (glucosamine-6-phosphate [1]) [s⁻¹] | self-cleavage kobs at 640 uM GlcN6P (glucosamine-6-phosphate [2]) [s⁻¹] | self-cleavage kobs at 160 uM GlcN6P (glucosamine-6-phosphate [3]) [s⁻¹] | self-cleavage kobs at 2500 uM GlcN6P (glucosamine-6-phosphate [4]) [s⁻¹] | self-cleavage kobs at 10000 uM GlcN6P (glucosamine-6-phosphate [5]) [s⁻¹] | KM (glucosamine-6-phosphate [6]) [µM] |
| --- | --- | --- | --- | --- | --- | --- |
| AUAAACGCGCUAGAACUACAGAAAUGUAGUUGCCGGGGAGGAGGUUGAUCGAAUUUUCAGCGGAUGCCUCCAAA [A6C C11U A33C A36G U47G G59A] | < 1e-05 | < 1e-05 | – | – | – | – |
| AUAAACGCGCCAGAACUACAGAAAUGUAGUUGAAGAGGAGGAGGUUUAUCGAAUUUUCGGCGGAUGCCUCCAAA [A6C C34A] | < 1e-05 | < 1e-05 | < 1e-05 | < 1e-05 | < 1e-05 | – |
| AUAAACGUGCCAGGACUACAGAAAUGUAGUUGACGAGGAGGAGGUUUAUCGAAUUUUCGGCGGAUGCCUCCAAA [A6C C8U A14G] | < 1e-05 | – | – | – | < 1e-05 | – |
| AUAAAAGCGCCAGAACUACAGAAAUGUAGUUGACGAGGAGUAGGUUUAUCGCAUUUUCGGCGGAUGCCUCCAAA [G41U A52C] | – | – | – | – | – | 3260 ± 480 |
| AUAAACGCGCCUGAACUACAGAAAUGUAGAUGACGAGGAGGAGGUUUCUCGAAUUUUCGGCGGAUGCCUCCAAA [A6C A12U U30A A48C] | < 1e-05 | – | – | – | < 1e-05 | – |
| AUAAAAGCGCCAGAACUACAGAAAUGUAGUUGACGAGGAGGAGGUUUAUCGAAUUUUCGGCAUAUGCCUCCAAA [G62A G63U] | – | – | – | – | – | 359 ± 79 |
| AUAAACGCGCCAGAAAUACAGAAAUGUAGUUGACGAGGAGGAGGUUUAUCGAAUUUUCGGCGGAUGCCUCCAAA [A6C C16A] | < 1e-05 | < 1e-05 | < 1e-05 | < 1e-05 | – | – |
| AUAAACGCGUCAGAACUACAGAAAUGUAGGUGACGAGGAGGAGGUUUAUCGGAUUUUCGGCGGAUGCCUCCAAA [A6C C10U U30G A52G] | < 1e-05 | – | – | – | < 1e-05 | – |
| AUAAACGCGCCAGAACUACAGAAAUGUAGUUGACGAGGAGGAGGUUUAUGGAAUUUUCGGCGGAUGCCUUCAAA [A6C C50G C70U] | 0.000111 ± 3.3e-05 | 0.000347 ± 0.0001 | – | 0.000114 ± 2.7e-05 | 0.000121 ± 2.9e-05 | – |
| AUAAAAGCGCCAGAACUACAGAAAUGUAGUUGACGAGUAGGAGGUUUAUCGAAUUUUCGGCGGAGGCCUCCAAA [G38U U65G] | – | – | – | – | – | 107 ± 46 |
| AUAAACGCGCCAGAACUACAGAAAUGUAGUUGACGAGGAGGAGGUUUAUCGAAUUUUUGGCGGAUGCCUCCAAA [A6C C58U] | < 1e-05 | – | < 1e-05 | – | < 1e-05 | – |
| AUAAACGCGCCAGAACUACAGAAAUGUAGUUGACGAGGAGGAGGUUUAUCGAAUUUUGGGCGGAUGCCUCCAAA [A6C C58G] | < 1e-05 | < 1e-05 | – | – | < 1e-05 | – |
| AUAAACGCGCUAGAACUACAGAAAUGUAGUUGACGAGGAGGAGGUUUAUCGAAUUUUCGGCGGAUGCCUCCAAA [A6C C11U] | < 1e-05 | < 1e-05 | < 1e-05 | – | – | – |
| AUAAACGCGCAAGAACUACAGAAAUGUAGUUGACGAGGAGGAGGUUUAUCGAAUUUUCGGCGGAUGCCUCCAAA [A6C C11A] | < 1e-05 | – | < 1e-05 | < 1e-05 | – | – |
| AUAAACGCGGCAGAACUACAGAAAUGUAGUUGACGAGGAGGAGGUUUAUCGAAUUUUCGGCGGAUGCCUCCAAA [A6C C10G] | < 1e-05 | < 1e-05 | < 1e-05 | – | < 1e-05 | – |
| AUAAACGCGCCAGAACUACAGAAAUGUAGUUGACGAGGGGAAGGUAUAUCGAAUUUUCGGCGGGUGCCUCCAAA [A6C A39G G41A U46A A64G] | < 1e-05 | – | – | – | < 1e-05 | – |

| Variant | self-cleavage kobs at 40 uM GlcN6P (glucosamine-6-phosphate [1]) [s⁻¹] | self-cleavage kobs at 640 uM GlcN6P (glucosamine-6-phosphate [2]) [s⁻¹] | self-cleavage kobs at 160 uM GlcN6P (glucosamine-6-phosphate [3]) [s⁻¹] | self-cleavage kobs at 2500 uM GlcN6P (glucosamine-6-phosphate [4]) [s⁻¹] | self-cleavage kobs at 10000 uM GlcN6P (glucosamine-6-phosphate [5]) [s⁻¹] | KM (glucosamine-6-phosphate [6]) [µM] |
| --- | --- | --- | --- | --- | --- | --- |
| AUAAACGCGCCAGAACUACAGAAAUGUAGUUGACGAGGAGGAGGUUUAUCGUAUUUUCGUCGGAUGCCUCCAAA [A6C A52U G60U] | < 1e-05 | – | – | – | – | – |
| AUAAACGCGCGGGAACUACAGAAAUGUAGUUGACGAGGAGGAGGUUUAUCGAAUUUUCGGCGGAUGCCUUCAAA [A6C C11G A12G C70U] | < 1e-05 | – | – | – | – | – |
| AUAAAAGCGCCAGAACUACAGAAAUGUAGUUGACGAGGAGGAGGUUUAUCGAAUUUUCGGCGGCUGUCUCCAAA [A64C C67U] | – | – | – | – | – | 657 ± 190 |
| AUAAACGCGCCAGAACUACAGAAAUGUAGUUGACGGGGAGGAGGUUUAUCGGAUUUUCGGCGGAUGCCUCCAAA [A6C A36G A52G] | < 1e-05 | – | – | < 1e-05 | < 1e-05 | – |
| AUAAAAGCGCCAGAACUACAGAAAUGUAGUUGACGAGGGGGAGGUUUAUCGAAUUUUCGGCGGAUGCCUCUAAA [A39G C71U] | 0.00144 ± 0.00017 | 0.00783 ± 0.0012 | 0.00396 ± 0.00059 | 0.0119 ± 0.0027 | 0.0284 ± 0.0069 | 370 ± 140 |
| AUAAACGCGCCAGAACUACAGAAAUGUAGUUGACGAGGAGGAGGUUUUUCGAAUUUUCGGCGGAUGCCUCCAAA [A6C A48U] | < 1e-05 | – | – | < 1e-05 | – | – |
| AUAAACGCGCCAGAACUACAGAAAUGUAGUUGUCGAGGAGGAGGUUUAUCGAAUUUUGGUCGGAUGCCUCAAAA [A6C A33U C58G G60U C71A] | < 1e-05 | – | – | – | – | – |
| AUAAACGCGCCUGAACUACAGAAAUGUAAUUGACGAGGAGGAGGUUUAUCGAAUUUUCGGCGGAUGCGUCCAAA [A6C A12U G29A C68G] | < 1e-05 | < 1e-05 | – | < 1e-05 | – | – |
| AUAAAAGCGCCAGAACUACAGAAAUGUAGUUGACGAGGAGGAGGUUUAUCGCAUUUUCGGCGGAGGCCUCCAAA [A52C U65G] | – | – | – | – | – | 197 ± 67 |
| AUAAACGCGCCAGAACUACAGAAAUGUAGUUGACGAGGAGGAGGUUUAUGGAAUUUUCGGGGGAUGCCUCCAAA [A6C C50G C61G] | 0.000119 ± 3.4e-05 | 0.00102 ± 0.00025 | 0.000251 ± 7.8e-05 | 0.000289 ± 0.0001 | 0.000343 ± 6.1e-05 | – |
| AAUAAAGCGCCAGAACUACAGAAAUGUAGUUGACGAGGAGGAGGUUUAUAGAAUUUUCGGCGGAUGCCUCCAAA [U2A A3U C50A] | < 1e-05 | – | – | – | 3.38e-05 ± 1.2e-05 | – |
| AUAAAAGCGCCAGAACUACAGAAAUGUAGUUGACGAGGAGGAGGUUUAUCGAAGUAUCGGCGUAUGCCUCCAAA [U54G U56A G63U] | – | – | – | – | – | 1560 ± 740 |
| AUAAACGCGCCCGAACUACAGAAAUGUAGUUGACGAGGAGGAGGUUUAUCGAAUUUUCCGCGGAUGCCUCCAAA [A6C A12C G59C] | < 1e-05 | < 1e-05 | – | – | < 1e-05 | – |
| AUAAACGCGCCAGACCUACAGAAAUGUAGUUGACGAGGAGGAGGUUUAUCGAACUUUCGGCGGAUGCCUCUAAA [A6C A15C U54C C71U] | < 1e-05 | – | – | – | – | – |
| UGGAAAGGGCCUGAACUACAGAAAUGUAGUUGACGAGGAGGAGGUUUAUCGAAUUUUCGGCGCAUGCAUCCAAA [A1U U2G A3G C8G A12U G63C C68A] | < 1e-05 | – | – | < 1e-05 | < 1e-05 | – |
